Experimental data: patent publication US20190002563A1 (MacroGenics, published 2019)

T1: human B7-H3 on cells (human, UniProt Q5ZPR3 29-534)
T1 sequence (looked up): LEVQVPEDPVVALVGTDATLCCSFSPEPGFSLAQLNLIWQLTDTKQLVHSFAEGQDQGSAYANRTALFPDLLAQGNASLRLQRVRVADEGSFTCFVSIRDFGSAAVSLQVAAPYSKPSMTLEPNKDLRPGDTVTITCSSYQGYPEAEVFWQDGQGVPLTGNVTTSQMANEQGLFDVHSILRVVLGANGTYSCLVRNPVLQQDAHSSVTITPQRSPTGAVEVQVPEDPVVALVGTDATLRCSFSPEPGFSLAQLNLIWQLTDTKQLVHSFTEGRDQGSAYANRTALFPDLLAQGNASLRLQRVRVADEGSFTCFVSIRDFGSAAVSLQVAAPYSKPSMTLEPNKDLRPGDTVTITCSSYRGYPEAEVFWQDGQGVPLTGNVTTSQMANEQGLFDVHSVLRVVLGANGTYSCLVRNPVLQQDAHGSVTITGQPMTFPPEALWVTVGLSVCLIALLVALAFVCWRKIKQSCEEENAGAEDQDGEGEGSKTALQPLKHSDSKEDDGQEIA

T2: Cynomolgus B7-H3 (cynomolgus monkey)
T2 chain: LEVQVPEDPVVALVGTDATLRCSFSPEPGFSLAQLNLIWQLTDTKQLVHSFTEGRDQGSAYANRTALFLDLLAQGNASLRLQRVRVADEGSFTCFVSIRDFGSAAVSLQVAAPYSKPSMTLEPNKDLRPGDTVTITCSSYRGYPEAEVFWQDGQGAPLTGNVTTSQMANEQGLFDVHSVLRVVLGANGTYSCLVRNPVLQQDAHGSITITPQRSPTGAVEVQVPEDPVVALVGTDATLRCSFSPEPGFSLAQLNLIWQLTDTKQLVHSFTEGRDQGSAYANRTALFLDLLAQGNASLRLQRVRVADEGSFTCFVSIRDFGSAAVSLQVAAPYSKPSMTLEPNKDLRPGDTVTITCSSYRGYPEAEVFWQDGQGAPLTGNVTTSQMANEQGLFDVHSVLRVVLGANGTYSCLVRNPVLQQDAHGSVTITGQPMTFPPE


Key:
human B7-H3 on cells [1] = target: T1, human B7-H3 on cells; test: cell-based or functional assay
Cynomolgus B7-H3 = target: T2, Cynomolgus B7-H3; test: SPR (BIAcore)
human B7-H3 on cells [2] = target: T1, human B7-H3 on cells; test: cell-based or functional assay; remark: listed apart in the source
human B7-H3 on cells [3] = target: T1, human B7-H3 on cells; test: cell-based or functional assay; remark: listed apart in the source

Row | Binder | EC50 of redirected killing, A375 target cells, E:T 1:1 (LDH assay) (human B7-H3 on cells [1]) | EC50 of redirected killing, A375 target cells, E:T 5:1 (LDH assay) (human B7-H3 on cells [1]) | EC50 of redirected killing, A375 target cells, E:T 10:1 (LDH assay) (human B7-H3 on cells [1]) | EC50 of redirected killing, A498 target cells, E:T 1:1 (LDH assay) (human B7-H3 on cells [1]) | EC50 of redirected killing, A498 target cells, E:T 5:1 (LDH assay) (human B7-H3 on cells [1]) | EC50 of redirected killing, A498 target cells, E:T 10:1 (LDH assay) (human B7-H3 on cells [1]) | Kd (Cynomolgus B7-H3) | koff (Cynomolgus B7-H3) | kon (Cynomolgus B7-H3) | EC50 of redirected killing, 22Rv1 target cells, human T cells, E:T 5:1 (human B7-H3 on cells [2]) | EC50 of redirected killing, A375 target cells, human T cells, E:T 5:1 (human B7-H3 on cells [2]) | EC50 of redirected killing, A498 target cells, human T cells, E:T 5:1 (human B7-H3 on cells [2]) | EC50 of redirected killing, BxPC-3 target cells, human T cells, E:T 5:1 (human B7-H3 on cells [2]) | EC50 of redirected killing, DU145 target cells, human T cells, E:T 5:1 (human B7-H3 on cells [2]) | EC50 of redirected killing, Detroit562 target cells, human T cells, E:T 5:1 (human B7-H3 on cells [2]) | EC50 of redirected killing, JIMT-1/Luc target cells, human T cells, E:T 5:1 (human B7-H3 on cells [2]) | EC50 of redirected killing, SKMES-1 target cells, human T cells, E:T 5:1 (human B7-H3 on cells [2]) | EC50 of redirected killing, U87 target cells, human T cells, E:T 5:1 (human B7-H3 on cells [2]) | potency of redirected cell killing against DART-A (target cell lines including A498, THP-1 and DU145) (human B7-H3 on cells [3])
1 | DART-A (bispecific antibody, Three-chain Fc diabody, one B7-H3 site and one CD3 site; chains are disulfide bonded; also called B7-H3×CD3 bispecific monovalent Fc diabody) chain 1: DIQLTQSPSFLSASVGDRVTITCKASQNVDTNVAWYQQKPGKAPKALIYSASYRYSGVPSRFSGSGSGTDFTLTISSLQPEDFATYYCQQYNNYPFTFGQGTKLEIKGGGSGGGGEVQLVESGGGLVQPGGSLRLSCAASGFTFSTYAMNWVRQAPGKGLEWVGRIRSKYNNYATYYADSVKDRFTISRDDSKNSLYLQMNSLKTEDTAVYYCVRHGNFGNSYVSWFAYWGQGTLVTVSSGGCGGGEVAALEKEVAALEKEVAALEKEVAALEKGGGDKTHTCPPCPAPEAAGGPSVFLFPPKPKDTLMISRTPEVTCVVVDVSHEDPEVKFNWYVDGVEVHNAKTKPREEQYNSTYRVVSVLTVLHQDWLNGKEYKCKVSNKALPAPIEKTISKAKGQPREPQVYTLPPSREEMTKNQVSLWCLVKGFYPSDIAVEWESNGQPENNYKTTPPVLDSDGSFFLYSKLTVDKSRWQQGNVFSCSVMHEALHNHYTQKSLSLSPGK chain 2: QAVVTQEPSLTVSPGGTVTLTCRSSTGAVTTSNYANWVQQKPGQAPRGLIGGTNKRAPWTPARFSGSLLGGKAALTITGAQAEDEADYYCALWYSNLWVFGGGTKLTVLGGGGSGGGGEVQLVESGGGLVQPGGSLRLSCAASGFTFSSFGMHWVRQAPGKGLEWVAYISSDSSAIYYADTVKGRFTISRDNAKNSLYLQMNSLRDEDTAVYYCGRGRENIYYGSRLDYWGQGTTVTVSSGGCGGGKVAALKEKVAALKEKVAALKEKVAALKE chain 3: not shown | 0.352 µg/mL | 0.243 µg/mL | 0.166 µg/mL | 0.129 µg/mL | 0.0425 µg/mL | 0.0272 µg/mL | 30.2 nM | 0.0051 s⁻¹ | 170000 M⁻¹ s⁻¹ | 0.212 µg/mL | 0.097 µg/mL | 0.064 µg/mL | 0.196 µg/mL | 0.084 µg/mL | 1.28 µg/mL | 0.047 µg/mL | 0.319 µg/mL | 0.099 µg/mL | –
2 | DART-B (bispecific antibody, Three-chain Fc diabody; also called B7-H3×CD3 bispecific monovalent Fc diabody) chain 1: DIQMTQSPSSLSASVGDRVTITCRASQDISNYLNWYQQKPGKAPKLLIYYTSRLHSGVPSRFSGSGSGTDFTLTISSLQPEDIATYYCQQGNTLPPTFGGGTKLEIKGGGSGGGGEVQLVESGGGLVQPGGSLRLSCAASGFTFSTYAMNWVRQAPGKGLEWVGRIRSKYNNYATYYADSVKDRFTISRDDSKNSLYLQMNSLKTEDTAVYYCVRHGNFGNSYVSWFAYWGQGTLVTVSSGGCGGGEVAALEKEVAALEKEVAALEKEVAALEKGGGDKTHTCPPCPAPEAAGGPSVFLFPPKPKDTLMISRTPEVTCVVVDVSHEDPEVKFNWYVDGVEVHNAKTKPREEQYNSTYRVVSVLTVLHQDWLNGKEYKCKVSNKALPAPIEKTISKAKGQPREPQVYTLPPSREEMTKNQVSLWCLVKGFYPSDIAVEWESNGQPENNYKTTPPVLDSDGSFFLYSKLTVDKSRWQQGNVFSCSVMHEALHNHYTQKSLSLSPGK chain 2: QAVVTQEPSLTVSPGGTVTLTCRSSTGAVTTSNYANWVQQKPGQAPRGLIGGTNKRAPWTPARFSGSLLGGKAALTITGAQAEDEADYYCALWYSNLWVFGGGTKLTVLGGGGSGGGGQVQLVQSGAEVKKPGASVKVSCKASGYTFTSYWMQWVRQAPGQGLEWMGTIYPGDGDTRYTQKFKGRVTITADKSTSTAYMELSSLRSEDTAVYYCARRGIPRLWYFDVWGQGTTVTVSSGGCGGGKVAALKEKVAALKEKVAALKEKVAALKE chain 3: not shown | – | – | – | – | – | – | – | – | – | – | – | – | – | – | – | – | – | – | ~6 fold
